Results published in US20230381130A1 (ATRECA, published 2023).

T1: human FcγRIIa-H (the high-affinity H131 variant) (human, UniProt P12318 34-317)
T1 sequence (looked up): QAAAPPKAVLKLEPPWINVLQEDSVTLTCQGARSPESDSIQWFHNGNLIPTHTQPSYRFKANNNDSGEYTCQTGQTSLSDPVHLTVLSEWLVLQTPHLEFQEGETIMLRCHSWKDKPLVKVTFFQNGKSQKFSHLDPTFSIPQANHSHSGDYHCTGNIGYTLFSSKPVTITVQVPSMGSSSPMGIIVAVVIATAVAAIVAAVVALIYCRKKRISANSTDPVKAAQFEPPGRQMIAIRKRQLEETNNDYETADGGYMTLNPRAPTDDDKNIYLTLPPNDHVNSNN


Target: T1, human FcγRIIa-H (the high-affinity H131 …)
Assay: cell-based or functional assay

Row | Avg ΔActivity Rank | EC50 [nM] | Fold ΔActivity | Binder
1 | 2 | – | – | AIP-169752 (antibody, V domains shown) VH: EVQLVESGGALVKPGGSLRLSCAASGFTFSKAWMSWVRQAPGKGLEWVGRIKSVTDGETTDYAAPVKGRFTISRDDSKSTLYLQMNSLKTEDTAVYYCTSSFCCRGGGSCPSHDTSYCGGQYKSYYYMDVWGKGTTVTVSS VL: QSVLTQPPSASGTPGQRVTISCSGSSSNIGSSSVSWYQQLPGTAPKLLIYKNNQRPSGVPDRFSGSKSGTSASLAISGLRSEDEADYYCSTWDDSLSVRVFGGGTKLTVL
2 | 2 | – | – | AIP-182606 (antibody, V domains shown) VH: EVQLVESGGALVKPGGSLRLSCAASGFTFSKAWMSWVRQAPGKGLEWVGRIKSVTDGETTDYAAPVKGRFTISRDDSKSTLYLQMNSLKTEDTAVYYCTSSFSCRGGSCPSHDTSYGGQYKSYYYMDVWGKGTTVTVSS VL: QSVLTQPPSASGTPGQRVTISCSGSSSNIGSSSVSWYQQLPGTAPKLLIYKNNQRPSGVPDRFSGSKSGTSASLAISGLRSEDEADYYCSTWDDSLSVRVFGGGTKLTVL
3 | 2 | – | – | AIP-191692 (antibody, V domains shown) VH: EVQLVESGGALVKPGGSLRLSCAASGFTFSKAWMSWVRQAPGKGLEWVGRIKSVTDGETTDYAAPVKGRFTISRDDSKSTLYLQMNSLKTEDTAVYYCTSSFCCRGGSCPSHDTSYCGGGSGYKSYYYMDVWGKGTTVTVSS VL: QSVLTQPPSASGTPGQRVTISCSGSSSNIGSSSVSWYQQLPGTAPKLLIYKNNQRPSGVPDRFSGSKSGTSASLAISGLRSEDEADYYCSTWDDSLSVRVFGGGTKLTVL
4 | 1 | – | – | AIP-131762 (antibody, V domains shown) VH: EVQLVESGGALVKPGGSLRLSCAASGFTFSKAWMSWVRQAPGKGLEWVGRIKSVTDGETTDYAAPVKGRFTISRDDSKSTLYLQMNSLKTEDTAVYYCTSSFCGGPSHDTSYCGGQYKSYYYMDVWGKGTTVTVSS VL: QSVLTQPPSASGTPGQRVTISCSGSSSNIGSSSVSWYQQLPGTAPKLLIYKNNQRPSGVPDRFSGSKSGTSASLAISGLRSEDEADYYCSTWDDSLSVRVFGGGTKLTVL
5 | 2 | – | – | AIP-145328 (antibody, V domains shown) VH: EVQLVESGGALVKPGGSLRLSCAASGFTFSKAWMSWVRQAPGKGLEWVGRIKSVTDGETTDYAAPVKGRFTISRDDSKSTLYLQMNSLKTEDTAVYYCTSSFCCRGGSGGSCPSHDTSYCGGQYKSYYYMDVWGKGTTVTVSS VL: QSVLTQPPSASGTPGQRVTISCSGSSSNIGSSSVSWYQQLPGTAPKLLIYKNNQRPSGVPDRFSGSKSGTSASLAISGLRSEDEADYYCSTWDDSLSVRVFGGGTKLTVL
6 | 2 | 258 | 0.55 | AIP-114111 (antibody, V domains shown) VH: EVQLVESGGALVKPGGSLRLSCAASGFTFSKAWMSWVRQAPGKGLEWVGRIKSVTDGETTDYAAPVKGRFTISRDDSKSTLYLQMNSLKTEDTAVYYCTSSFCCRGGSCPSHDTSYCGGQYKSSYYYMDVWGKGTTVTVSS VL: QSVLTQPPSASGTPGQRVTISCSGSSSNIGSSSVSWYQQLPGTAPKLLIYKNNQRPSGVPDRFSGSKSGTSASLAISGLRSEDEADYYCSTWDDSLSVRVFGGGTKLTVL
7 | 1 | – | – | AIP-185680 (antibody, V domains shown) VH: EVQLVESGGALVKPGGSLRLSCAASGFTFSKAWMSWVRQAPGKGLEWVGRIKSVTDGETTDYAAPVKGRFTISRDDSKSTLYLQMNSLKTEDTAVYYCTSSFCCRGGGGSCPSHDTSYCGGQYKSYYYMDVWGKGTTVTVSS VL: QSVLTQPPSASGTPGQRVTISCSGSSSNIGSSSVSWYQQLPGTAPKLLIYKNNQRPSGVPDRFSGSKSGTSASLAISGLRSEDEADYYCSTWDDSLSVRVFGGGTKLTVL
8 | 2 | 472 | 0.58 | AIP-194564 (antibody, V domains shown) VH: EVQLVESGGALVKPGGSLRLSCAASGFTFSKAWMSWVRQAPGKGLEWVGRIKSVTDGETTDYAAPVKGRFTISRDDSKSTLYLQMNSLKTEDTAVYYCTSSFCCRSGGSCPSHDTSYCGGQYKSYYYMDVWGKGTTVTVSS VL: QSVLTQPPSASGTPGQRVTISCSGSSSNIGSSSVSWYQQLPGTAPKLLIYKNNQRPSGVPDRFSGSKSGTSASLAISGLRSEDEADYYCSTWDDSLSVRVFGGGTKLTVL
9 | 2.5 | 446 | 0.75 | AIP-125646 (antibody, V domains shown) VH: EVQLVESGGALVKPGGSLRLSCAASGFTFSKAWMSWVRQAPGKGLEWVGRIKSVTDGETTDYAAPVKGRFTISRDDSKSTLYLQMNSLKTEDTAVYYCTSSFCCRGGSCPSHDTSYCGQYKSYYYMDVWGKGTTVTVSS VL: QSVLTQPPSASGTPGQRVTISCSGSSSNIGSSSVSWYQQLPGTAPKLLIYKNNQRPSGVPDRFSGSKSGTSASLAISGLRSEDEADYYCSTWDDSLSVRVFGGGTKLTVL
10 | 2 | – | – | AIP-107388 (antibody, V domains shown) VH: EVQLVESGGALVKPGGSLRLSCAASGFTFSKAWMSWVRQAPGKGLEWVGRIKSVTDGETTDYAAPVKGRFTISRDDSKSTLYLQMNSLKTEDTAVYYCTSSFCCRGGSCPSHDTSYCGGGQYKSYYYMDVWGKGTTVTVSS VL: QSVLTQPPSASGTPGQRVTISCSGSSSNIGSSSVSWYQQLPGTAPKLLIYKNNQRPSGVPDRFSGSKSGTSASLAISGLRSEDEADYYCSTWDDSLSVRVFGGGTKLTVL
11 | 2 | – | – | AIP-167295 (antibody, V domains shown) VH: EVQLVESGGALVKPGGSLRLSCAASGFTFSKAWMSWVRQAPGKGLEWVGRIKSVTDGETTDYAAPVKGRFTISRDDSKSTLYLQMNSLKTEDTAVYYCTSSFCCRGGSCPSHDTSYCGGQYSYYYMDVWGKGTTVTVSS VL: QSVLTQPPSASGTPGQRVTISCSGSSSNIGSSSVSWYQQLPGTAPKLLIYKNNQRPSGVPDRFSGSKSGTSASLAISGLRSEDEADYYCSTWDDSLSVRVFGGGTKLTVL
12 | 2 | – | – | AIP-163723 (antibody, V domains shown) VH: EVQLVESGGALVKPGGSLRLSCAASGFTFSKAWMSWVRQAPGKGLEWVGRIKSVTDGETTDYAAPVKGRFTISRDDSKSTLYLQMNSLKTEDTAVYYCTSSFCCRGGSCPSHDTSYCGGQKSYYYMDVWGKGTTVTVSS VL: QSVLTQPPSASGTPGQRVTISCSGSSSNIGSSSVSWYQQLPGTAPKLLIYKNNQRPSGVPDRFSGSKSGTSASLAISGLRSEDEADYYCSTWDDSLSVRVFGGGTKLTVL
